Laboratory results from the RNAGym collection of RNA variant scans (doi:10.1073/pnas.2313332121).

B1: TPR t1 (parent)
chain: GACCAAUCUGCCCUCAGAGCUCGAGAACAUCUUCGGAUGCAGAGGAGGCAGGCUUCGGUGGCGCGAUAGCGCCAACGUCCUCAACCUCCAAUGCAUCCCACCACAUGAUGAUGCCUGAAGAGCCUUGGUUUUUUG

Variants of: B1
Experiment: polymerase ribozyme fitness, log enrichment relative to wild type (log ratio); higher = more active; in vitro selection for triplet polymerase activity
Outline: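 Both subunits of a heterodimeric triplet polymerase ribozyme were given their own mutant library, built by PCR and transcribed. Each library was annealed with a biotinylated primer, the partner subunit and triplets, incubated frozen at −7 °C, and its extended constructs gel-excised, captured on streptavidin beads and amplified by RT-PCR, all in one round done in triplicate. Fitness is the logarithm of genotype enrichment relative to wild-type enrichment, with replicates averaged by inverse-variance weighting. That logarithm is base 2, and Illumina-sequenced genotypes needed ≥10 input reads and ≥1 read per output.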

Variant	polymerase ribozyme fitness (log ratio)
G36U U96A C97A G127A	-2.83
G36U A68G	-3.62
G36C G110A	-1.62
G36U C72A C85A U92A U112A U129A	-5.86
G36U G52U	-2.2
A37C C76G	-0.251
G36U C40G	-2.33
A37C G45U G61C C123A	-3.45
A37G C56G U96C	-0.381
A37G A83C U125A	-0.963
A37C G65C A121U	-5.06
G36C C76G	-1.25
G36U C76A C98G U109C C114G	-6.07
G36C C70G G110C U129G	-5.33
G36C G128C	-4.43
A37G C88G	-2.83
G36C U78C	-1.49
G36U C56U C97A	-0.495
A37G A118U	0.234
G36U A46U C72A C97U	-1.58
G36U G48A C70U C82U U133G	-1.79
G36U G120A U126A U132A	-0.708
G36C C49U A74G C101G A119U	-3.8
G36C G45C	-2.04

Variant	polymerase ribozyme fitness (log ratio)
A37C G60A C76G	-2.7
G36U G110U G120A	-2.35
A37G G45C C89U A95G	-5.88
G36U G122A U131A	-1.83
G36U G42U C56G C70U U112C C124U	-2.29
A37C G52C G117A	-2.76
G36C G51A C101U	-3.92
A37C C70A	-1.82
G36C G44A A74U C79G C101U	-4.54
G36U C82A G113U	-3.08
G36U G61C U126C	-4.78
A37G G60A	-1.03
A37C C115U U130A U132G	-1.99
A37C C56G G58A G63C G77C	-3.59
A37G C62A G93U A121G	-3.43
A37U A46U G47A C123G	-1.6
G36U G61A U78A	-0.679
A37U A66C A75U G120C	-1.07
G36C G47U U55G G61U C101U U132A	-3.11
G36C C72A G122A	-1.22
A37G G71U	-1.09
G36C C102U	-3.5
A37G A50C G57A G117C	-6.92
G36U G60C A84C	-1.87

Variant	polymerase ribozyme fitness (log ratio)
G36C C49A C53A G61C C76U A119G	-6.33
G36U G44A U112A	-0.0288
G36C G44C C73U G110C C124U U125A	-4.74
G36U U55G A83U G110A U130G	-5.37
A37C C62G A83U C88U	-2.61
G36U C64U C115G G117U U132A	-6.32
G36C C64U G93A A100C	-3.67
G36U A84C C85G C86U	-2.86
A37C G93A	-0.971
G36U G45A A119U	-1.61
A37C C40U C53U G63U C123G U133C	-0.381
G36C U106G	-3.63
G36C C72A C94A C104U	-3.64
A37U C40U U87C G135U	-1.29
G36C U81A A84U	-2.7
G36U G52C U78G A95G	-2.15
G36C C64U	-1.65
G36U C72U U96G G120C	-0.581
G36U C53U G61A A118G	-1.48
G36U C53U G63A C123G	-0.478
G36U A41U	-2.77
G36U C49U	-2.72
G36C U130G	-1.39
G36U U55C G93A	-2.49

Variant	polymerase ribozyme fitness (log ratio)
A37G G39A C86G	-3.13
G36U G69A	-4.06
A37G A46G A83C	-2.03
G36U C70G	-4.21
A37C G120A	1.02
G36C G69U A91U C94A G113C	-3.07
G36U G69U A75U	-0.726
G36U U106G G120A	-1.89
A37U C56G C114A	-1.64
G36C U129A	-2.27
G36U G60C G69U A100U	-4.04
G36U A103U C114U	-5.26
A37G A43U G52A G57U C98U	-5.9
G36U A46C	-2.09
G36U A121C U125A G127U G128C	-0.954
G36U A50C G60A	-2
A37G A95C	-1.66
A37G C64U	-0.479
A37U A43U C73A U96C A111C U112A	-4.83
A37G C73A U96A	-3.88
G36U G39C C124G	-0.0867
G36U G44A G71U	-3.19
A37G C72A A84G	-1.24
G36C C40A C62U C72U	-4.22

Variant	polymerase ribozyme fitness (log ratio)
A37C G39A G61A U112A U116G U133A	-3.64
A37C G122U	-0.263
A37C G48C	-1.64
A37C A95U	-0.484
A37U A74C C88G G110A	-3.27
G36U C79A	-3.02
G36U C79U	-1.62
A37C G60A C102A	-3.1
G36U G107C	-5.19
G36U G44C C70U	-2.13
G36C G58C C101G A111U	-5
G36U C64U C123G	0.799
A37G A50U C94U C104U G117C	-5.89
A37G G60C G117A	-1.95
G36U A37U	-1.98
A37C G69A	-3.26
G36U C49U A95U	-3.5
A37C G63C A74C	-3.35
A37C G52U C80A	-4.05
G36C G63U A83G U126G	-5.42
A37G U87C A95G A100U U130A	-3.04
A37G C49G A111U U126G	-6.22
A37C G45U C123A	-0.836
G36U G39U C70U A111G	-4.55

Variant	polymerase ribozyme fitness (log ratio)
A37G G69U A100U C114G	-1.72
A37C G45A G113U	-4.52
A37C G61U C73U	-1.35
G36U U106A	-1.6
G36C G65U C72U G107A G117C G128A U133A	-7.08
A37U C56G C85U	-1.26
G36U C88G A91U	-6.86
A37G U59G	0.0397
A37C C79A C94U	-2.07
A37G G60U C72G C99A A103G C114U U129C	-7.36
G36U A50U A118U	-1.34
G36C U112A	-1.13
A37C A50C	-0.281
G36U U87C C115U A119G U131C	1.61
A37U A41U A50C C115U	-4.64
A37C G52A G69U C114G C123U	-2.89
A37C G69U U96G U129A	-0.113
G36U C80A U81A A121U U130C	-0.239
G36C A50C C114U	-6.09
G36C G44A G71U A75G C89A	-4.65
A37C C76G G117C A121C	-5.98
G36U G45C C89U U132A	-2.62
G36U C53A C89G	-2.84
A37C G61U C104U U112C	1.04

Variant	polymerase ribozyme fitness (log ratio)
A37U A46U G47A U130G U131G	-3.56
A37G G57C G58U G120U	-0.432
G36U A118G G128A	-3.98
A37C C70A C72U G120U	-1.56
G36U G127A	-2.27
A37G C64U C88U A121U	-0.585
G36C A68G C79G C98U C115U C124U	-6.44
A37G C89A	-2.41
A37G G42A G61A	-1.68
G36U C70G C101A G120A	-3.68
G36C C72G C102A	-4.94
G36U U59C C86U	-1.77
G36C G39C C62U C124G U130G	-1.27
G36C G51A C70A C101U	-7.34
A37C G63A	-0.905
A37U A74U	-0.149
G36C G61U A95C	-2.42
G36C A91C	-1.87
G36U G60C	-1.25
G36U G39C G69A C82A G120U	-5.69
G36U U81C G107C	-5.8
G36C G120C	0.237
A37U A41C C64A U109A G128U	-5.77
